From article doi:10.1101/2022.09.14.507916 come the findings set out here.

The target of the experiment is octameric HlgAB pore complex of γ-hemolysin (four HlgA and four HlgB, alternating) (Staphylococcus aureus (strain Newman)). The experiment is described as follows: cryo-EM structure.

Turning to “octameric HlgAB pore complex of γ-hemolysin (four HlgA and four HlgB, alternating)”, the stoichiometry N is 6.

By stoichiometry N is commonly meant the number of molecules, sites or subunits per partner or assembly.
